How the values were obtained:
Experiment in all cases: pull-down
GST-PI31-S168D = molecular target: T1, GST-PI31-S168D (Drosophila, UniProt Q9V637 1-270, S168D)
T1 sequence: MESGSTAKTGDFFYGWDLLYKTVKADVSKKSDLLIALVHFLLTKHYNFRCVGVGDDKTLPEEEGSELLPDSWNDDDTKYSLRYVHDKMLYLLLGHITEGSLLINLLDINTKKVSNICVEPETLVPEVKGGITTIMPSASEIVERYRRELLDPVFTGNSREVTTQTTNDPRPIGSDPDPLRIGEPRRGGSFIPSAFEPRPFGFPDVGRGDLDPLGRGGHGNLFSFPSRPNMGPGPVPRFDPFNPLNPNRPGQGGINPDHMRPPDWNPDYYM

GST-PI31-S168E = molecular target: T2, GST-PI31-S168E (Drosophila, UniProt Q9V637 1-270, S168E)
T2 sequence: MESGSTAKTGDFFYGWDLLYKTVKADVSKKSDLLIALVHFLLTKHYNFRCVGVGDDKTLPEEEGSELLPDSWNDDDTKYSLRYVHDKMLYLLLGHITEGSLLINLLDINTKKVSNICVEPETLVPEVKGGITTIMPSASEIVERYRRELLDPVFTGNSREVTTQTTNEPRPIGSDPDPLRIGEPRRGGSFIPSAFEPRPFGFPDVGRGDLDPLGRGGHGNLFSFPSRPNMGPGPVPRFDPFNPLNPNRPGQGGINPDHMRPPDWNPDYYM

GST-PI31-WT = molecular target: T3, GST-PI31-WT (Drosophila, UniProt Q9V637 1-270)
T3 sequence: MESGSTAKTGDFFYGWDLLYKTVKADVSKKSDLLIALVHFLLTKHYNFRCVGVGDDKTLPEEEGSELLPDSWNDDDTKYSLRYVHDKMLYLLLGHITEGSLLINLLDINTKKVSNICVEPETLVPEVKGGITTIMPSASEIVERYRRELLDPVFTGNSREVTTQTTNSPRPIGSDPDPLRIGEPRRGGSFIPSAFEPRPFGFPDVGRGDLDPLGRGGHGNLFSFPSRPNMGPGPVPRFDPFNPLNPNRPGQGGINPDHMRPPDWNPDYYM

Measured: binding result

B1: FLAG-dDYNLL1 (recombinant, E. coli) (natural protein)
chain: MSDRKAVIKNADMSEEMQQDAVDCATQALEKYNIEKDIAAYIKKEFDKKYNPTWHCIVGRNFGSYVTHETRHFIYFYLGQVAILLFKSG
binds: GST-PI31-S168D | GST-PI31-S168E | GST-PI31-WT
